Target: BsAb CD3-BCMA (human)
Assay: 1 mL CH1-XL column, purified BsAb 5 mg/ml load, residence time 4 min, 10% breakthrough

Chain of BsAb CD3-BCMA (human) (heavy, as listed by the source, chain 1 of 3): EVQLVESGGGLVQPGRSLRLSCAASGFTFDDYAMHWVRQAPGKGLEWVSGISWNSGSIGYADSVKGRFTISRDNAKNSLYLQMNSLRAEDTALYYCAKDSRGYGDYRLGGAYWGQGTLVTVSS
Chain of BsAb CD3-BCMA (human) (light, as listed by the source, chain 2 of 3): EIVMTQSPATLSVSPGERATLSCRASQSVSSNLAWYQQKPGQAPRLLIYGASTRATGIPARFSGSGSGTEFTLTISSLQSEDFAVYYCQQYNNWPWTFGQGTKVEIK
Chain of BsAb CD3-BCMA (human) (heavy, as listed by the source, chain 3 of 3): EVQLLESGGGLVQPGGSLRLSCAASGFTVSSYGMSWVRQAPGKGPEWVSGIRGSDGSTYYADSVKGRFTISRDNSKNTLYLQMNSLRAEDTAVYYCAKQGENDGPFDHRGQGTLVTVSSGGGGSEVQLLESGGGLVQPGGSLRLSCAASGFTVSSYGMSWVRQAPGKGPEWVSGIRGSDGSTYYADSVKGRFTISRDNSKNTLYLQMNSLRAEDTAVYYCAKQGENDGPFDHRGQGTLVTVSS

## CaptureSelect CH1-XL affinity resin ligand (13 kDa llama heavy chain antibody fragment, Ig heavy chain CH1-specific nanobody) (VHH)
  dynamic binding capacity: 9.3 mg/mL
